Data on one molecule can be found in patent US11312773B2, “Anti-PD-L1 antibody” (Fuso Pharmaceutical Industries, Ltd., priority 2016, dated 2022).

For the test, the target named is T1, canine PD-1/PD-L1 binding (Canis lupus familiaris, UniProt A0A8I3P7C4).
T1 construct: made in house; host or cells: Expi293F
T1 sequence (A0A8I3P7C4 19-237): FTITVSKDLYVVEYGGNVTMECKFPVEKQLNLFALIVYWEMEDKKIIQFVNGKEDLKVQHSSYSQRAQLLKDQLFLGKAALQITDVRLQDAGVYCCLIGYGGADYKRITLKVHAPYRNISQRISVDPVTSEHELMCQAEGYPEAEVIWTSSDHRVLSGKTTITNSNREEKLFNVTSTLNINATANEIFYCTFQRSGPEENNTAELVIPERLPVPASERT
Kind of test: Canine PD-1/PD-L1 binding inhibition ELISA (cPD-1-Ig immobilized, biotinylated cPD-L1-Ig). As to conditions: antibody 0, 2.5, 5 and 10 μg/ml. As for the experimental part: Briefly, canine PD-1-Ig (prepared in 2.4 above) was immobilized on flat bottomed 96-well plates and blocked with 1% BSA and 0.05% Tween 20-containing PBS. […] The binding of cPD-L1-Ig to cPD-1-Ig was measured by color reaction using Neutravidin-HRP (Thermo Fisher Scientific) and TMB one component substrate (Bethyl Laboratories).
Briefly, heavy chain and light chain variable region genes were identified from hybridomas producing rat anti-bovine PD-L1 monoclonal antibodies 4G12 and 6G7. Further, the heavy chain and light chain variable region genes of the above rat antibodies were linked to the constant region of heavy chain IgG4 and the constant region of light chain Lambda of a known canine antibody, respectively, to prepare nucleotide sequences, followed by codon optimization (SEQ ID NOS: 9 and 10 (amino acid sequences), SEQ ID NOS: 19 and 20 (nucleotide sequences after codon optimization). Then, synthesis of genes was performed so that NotI restriction enzyme recognition site. KOZAK sequence, chimeric antibody's light chain sequence, poly-A addition signal sequence (PABGH), promoter sequence (PCMV), SacI restriction enzyme recognition site, intron sequence (INRBG), KOZAK sequence, chimeric antibody's heavy chain sequence and XbaI restriction enzyme recognition site would be located in this order. […]
A general note: ELISA stands for enzyme-linked immunosorbent assay.

B1: 4G12: rat anti-bovine PD-L1 monoclonal antibody; VL SEQ ID NO: 1, VH SEQ ID NO: 2 (antibody, listed as Rattus norvegicus, V domains shown)
VH: MGWSQIILFLVAAATCVHSQVQLQQSGAELVKPGSSVKISCKASGYTFTSNFMHWVKQQPGNGLEWIGWIYPEYGNTKYNQKFDGKATLTADKSSSTAYMQLSSLTSEDSAVYFCASEEAVISLVYWGQGTLVTVSS
VL: MESQTHVLISLLLSVSGTYGDIAITQSPSSVAVSVGETVTLSCKSSQSLLYSENQKDYLGWYQQKPGQTPKPLIYWATNRHTGVPDRFTGSGSGTDFTLIISSVQAEDLADYYCGQYLVYPFTFGPGTKLELK
In the case of B1, the “Inhibitory activity against canine PD-1/PD-L1 binding” value is given as “reduced the amounts of binding”.
